Data reported in patent publication US20250320461A1, “GENETICALLY MODIFIED HUMAN STEM CELL EXPRESSING A MUTANT HUMAN CYTOCHROME P450 2B6 PROTEIN AND ITS USE THEREOF IN THE TREATMENT OF CANCER” (ASSISTANCE PUBLIQUE-HOPITAUX DE PARIS, priority 2019, published 2025).

Experiment: affinity of cytochrome P450 2B6 protein for CPA
Type: biochemical, human
Excerpt: In one particularly advantageous embodiment, said variants and fragments have an affinity for CPA the same as, substantially the same as, or greater than, that of the mutant human cytochrome P450 2B6 protein (CYP2B6*) of SEQ ID No 1.

B1: CYP2B6*: mutant human cytochrome P450 2B6 protein of SEQ ID No. 1 (substitutions I114V, L199M, V477W) (protein, listed as Homo sapiens)
chain: MELSVLLFLALLTGLLLLLVQRHPNTHDRLPPGPRPLPLLGNLLQMDRRGLLKSFLRFREKYGDVFTVHLGPRPVVMLCGVEAIREALVDKAEAFSGRGKIAMVDPFFRGYGVVFANGNRWKVLRRFSVTTMRDFGMGKRSVEERIQEEAQCLIEELRKSKGALMDPTFLFQSITANIICSIVFGKRFHYQDQEFLKMMNLFYQTFSLISSVFGQLFELFSGFLKYFPGAHRQVYKNLQEINAYIGHSVEKHRETLDPSAPKDLIDTYLLHMEKEKSNAHSEFSHQNLNLNTLSLFFAGTETTSTTLRYGFLLMLKYPHVAERVYREIEQVIGPHRPPELHDRAKMPYTEAVIYEIQRFSDLLPMGVPHIVTQHTSFRGYIIPKDTEVFLILSTALHDPHYFEKPDAFNPDHFLDANGALKKTEAFIPFSLGKRICLGEGIARAELFLFFTTILQNFSMASPVAPEDIDLTPQECGWGKIPPTYQIRFLPR
Vmax (compared with CYP2B6 WT): same
affinity for CPA relative to the wild-type protein (CYP2B6 WT) (vs CYP2B6 WT): more than 8 times
